Measurements: PMC6901390, “Cell-Free Enzymatic Conversion of Spent Coffee Grounds Into the Platform Chemical Lactic Acid” (Frontiers in Bioengineering and Biotechnology, 2019)

Legend:
Assay in all cases: purified protein
purified protein [1] = substrate: O=C[C@H](O)CO; conditions: pyruvate and D-glyceraldehyde varied together (0.5-40 mM), one combined Km, 20 mM sodium phosphate pH 7.0, 50 °C
purified protein [2] = substrate: CC(=O)C(=O)O; type: biochemical, Thermoplasma acidophilum; conditions: pyruvate and D-glyceraldehyde varied together (0.5-40 mM), one combined Km, 20 mM sodium phosphate pH 7.0, 50 °C
purified protein [3] = substrate: CC(=O)C(=O)O; type: biochemical, Geobacillus stearothermophilus; conditions: 0.2 mM NADH, 20 mM sodium phosphate pH 7.0, 50 °C, 0-50 mM pyruvate

Protein | Km (purified protein [1]) [mM] | Vmax (purified protein [1]) [µmol/min/mg] | kcat (purified protein [1]) [s⁻¹] | kcat/Km (purified protein [1]) [M⁻¹ s⁻¹] | Km (purified protein [2]) [mM] | Vmax (purified protein [2]) [µmol/min/mg] | kcat (purified protein [2]) [s⁻¹] | kcat/Km (purified protein [2]) [M⁻¹ s⁻¹] | Km (purified protein [3]) [mM] | Vmax (purified protein [3]) [µmol/min/mg] | kcat (purified protein [3]) [s⁻¹] | kcat/Km (purified protein [3]) [M⁻¹ s⁻¹]
KDGA (Thermoplasma acidophilum DSM 1728) (protein, His-tagged, pProEX HTc, expressed in E. coli BL21-CodonPlus (DE3)-RIL, Ni-NTA purified) MYKGIVTPMITPMGQNGEIDYRATEILIDNLADFGVDGLFPMGSTGLFPMFSTDEKKKFLGFVRDHSKKIEVYAGVGSSSTQESVELSKYTEDIGIKVRVLMPTYYIKPDEDWMYRHFSTVISAASNDLFIYNIPQLSGSWISESLIEKLTREFSNVKGIKDSSGDMRFFSRIIRHKNEKFDIFQGQDDLLFLSLSIGASGGVCGLSNISPYITNLYHEFSAGNLEKARKIQIDEVNPLMYAINEATFPAGYYYAFYKMNGIKGGYRAPMVEPTTDQKKKIDQELTKIPKKQ | 8.07 ± 1.29 | 17 | 10.5 | 1300 | 8.07 ± 1.29 | 17 | 10.5 | 1300 |  |  |  | 
LDH (Geobacillus stearothermophilus) (protein, synthetic gene, His-tagged, pETDuet-1, expressed in E. coli BL21 (DE3), Ni-NTA purified) MKNNGGARVVVIGAGFVGASYVFALMNQGIADEIVLIDANESKAIGDAMDFNHGKVFAPKPVDIWHGDYDDCRDADLVVICAGANQKPGETRLDLVDKNIAIFRSIVESVMASGFQGLFLVATNPVDILTYATWKFSGLPHERVIGSGTILDTARFRFLLGEYFSVAPQNVHAYIIGEHGDTELPVWSQAYIGVMPIRKLVESKGEEAQKDLERIFVNVRDAAYQIIEKKGATYYGIAMGLARVTRAILHNENAILTVSAYLDGLYGERDVYIGVPAVINRNGIREVIEIELNDDEKNRFHHSAATLKSVLARAFTR |  |  |  |  |  |  |  |  | 10.95 ± 1.67 | 194 | 117 | 10600
